# According to US20090162366A1:
# Tests used:
# [1] = target: M2LTGEKS (influenza A virus, A/Hong Kong/1074/99 (H9N2))
# [2] = target: M2LTGS (influenza A virus, A/Hong Kong/156/97 (H5N1))
# [3] = target: M2KTGEKS (influenza A virus, A/Quail/Arkansas/16309-7/94 (H7N3NSA))
# [4] = target: M2PHTGS (influenza A virus, A/chicken/HongKong/YU427/03 (H9N2))
# [5] = target: M2LTKGS (influenza A virus, A/Hong Kong/542/97 (H5N1))
# [6] = target: M2GHTGKS (influenza A virus, A/chicken/HongKong/SF1/03 (H9N2))
# [7] = target: M2HTGEKS (influenza A virus, A/chicken/California/1002a/00 (H6N2))
# [8] = target: M2TGE (influenza A virus, A/DK/ST/5048/2001 (H3N8))
# [9] = target: M2TDGEKS (influenza A virus, A/chicken/Pennsylvania/13552-1/98 (H7N2NSB))
# [10] = target: M2TGEKS (influenza A virus, A/Canada/rv504/2004 (H7N3))
# [11] = target: M2KGENS peptide conjugated with BSA (influenza A virus, A/Turkey/VA/158512/02 (H7N2)); assay: peptide-BSA ELISA (++ EC50<10^-9M; + 10^-9M<EC50<10^-8M)
# [12] = target: M2DLTGS peptide conjugated with BSA (influenza A virus, A/Hong Kong/485/97 (H5N1)); assay: as above
# [13] = target: M2TGS-BSA conjugate (influenza A virus, A/chicken/Shanghai/F/98 (H9N2)); assay: as above
# [14] = target: M2TGEKS peptide conjugated with BSA (influenza A virus, A/Canada/rv504/2004 (H7N3)); assay: as above
# [15] = target: M2FG peptide conjugated with BSA (influenza A virus, A/X-31 (H3N2)); assay: as above
# [16] = target: M2TES peptide conjugated with BSA (influenza A virus, A/Viet Nam/1203/2004 (H5N1)); assay: as above
# [17] = target: M2TGE-BSA conjugate (influenza A virus, A/DK/ST/5048/2001 (H3N8)); assay: as above
# [18] = target: M2EG peptide conjugated with BSA (influenza A virus, A/New York/687/1995 (H3N2)); assay: as above
# [19] = target: M2-BSA conjugate (influenza A virus, A/Hong Kong/1/68 (H3N2)); assay: as above
# [20] = target: M2SG peptide conjugated with BSA (influenza A virus, A/swine/Tennessee/25/77 (H1N1)); assay: as above
# [21] = target: M2GHTGKS peptide conjugated with BSA (influenza A virus, A/chicken/HongKong/SF1/03 (H9N2)); assay: peptide-BSA ELISA; legend: EC50 > 10^-8M: -
# [22] = target: M2LTKGS peptide conjugated with BSA (influenza A virus, A/Hong Kong/542/97 (H5N1)); assay: peptide-BSA ELISA; legend: EC50 > 10^-8M: -
# [23] = target: M2HTGEKS peptide conjugated with BSA (influenza A virus, A/chicken/California/1002a/00 (H6N2)); assay: peptide-BSA ELISA; legend: EC50 > 10^-8M: -
# [24] = target: M2TGEK-BSA conjugate (influenza A virus, A/Netherlands/33/03 (H7N7)); assay: peptide-BSA ELISA; legend: EC50 > 10^-8M: -
# [25] = target: M2LTGEKS-BSA conjugate (influenza A virus, A/Hong Kong/1074/99 (H9N2)); assay: peptide-BSA ELISA; legend: EC50 > 10^-8M: -
# [26] = target: M2TDGEKS peptide conjugated with BSA (influenza A virus, A/chicken/Pennsylvania/13552-1/98 (H7N2NSB)); assay: peptide-BSA ELISA; legend: EC50 > 10^-8M: -
# [27] = target: M2LTGS peptide conjugated with BSA (influenza A virus, A/Hong Kong/156/97 (H5N1)); assay: peptide-BSA ELISA; legend: EC50 > 10^-8M: -
# [28] = target: M2PHTGS peptide conjugated with BSA (influenza A virus, A/chicken/HongKong/YU427/03 (H9N2)); assay: peptide-BSA ELISA; legend: EC50 > 10^-8M: -
# [29] = target: M2KTGEKS peptide conjugated with BSA (influenza A virus, A/Quail/Arkansas/16309-7/94 (H7N3NSA)); assay: peptide-BSA ELISA; legend: EC50 > 10^-8M: -
# [30] = target: M2GHTGKS peptide conjugated with BSA (influenza A virus, A/chicken/HongKong/SF1/03 (H9N2)); assay: peptide-BSA ELISA
# [31] = target: M2LTKGS peptide conjugated with BSA (influenza A virus, A/Hong Kong/542/97 (H5N1)); assay: peptide-BSA ELISA
# [32] = target: M2HTGEKS peptide conjugated with BSA (influenza A virus, A/chicken/California/1002a/00 (H6N2)); assay: peptide-BSA ELISA
# [33] = target: M2TGEK-BSA conjugate (influenza A virus, A/Netherlands/33/03 (H7N7)); assay: peptide-BSA ELISA
# [34] = target: M2LTGEKS-BSA conjugate (influenza A virus, A/Hong Kong/1074/99 (H9N2)); assay: peptide-BSA ELISA
# [35] = target: M2TDGEKS peptide conjugated with BSA (influenza A virus, A/chicken/Pennsylvania/13552-1/98 (H7N2NSB)); assay: peptide-BSA ELISA
# [36] = target: M2LTGS peptide conjugated with BSA (influenza A virus, A/Hong Kong/156/97 (H5N1)); assay: peptide-BSA ELISA
# [37] = target: M2PHTGS peptide conjugated with BSA (influenza A virus, A/chicken/HongKong/YU427/03 (H9N2)); assay: peptide-BSA ELISA
# [38] = target: M2KTGEKS peptide conjugated with BSA (influenza A virus, A/Quail/Arkansas/16309-7/94 (H7N3NSA)); assay: peptide-BSA ELISA
# [39] = target: M2 peptide (influenza A virus, A/Hong Kong/1/68 (H3N2)); assay: ELISA on peptide, Ab 10 µg/ml
substance,measurement,setting,value
mouse anti-M2 antibody 14C2,% of O.D. on M2 (SEQ ID NO:1),[1],< 10%
same,% of O.D. on M2 (SEQ ID NO:1),[2],< 10%
same,% of O.D. on M2 (SEQ ID NO:1),[3],< 10%
same,% of O.D. on M2 (SEQ ID NO:1),[4],< 10%
same,% of O.D. on M2 (SEQ ID NO:1),[5],< 10%
same,% of O.D. on M2 (SEQ ID NO:1),[6],< 10%
same,% of O.D. on M2 (SEQ ID NO:1),[7],< 10%
same,% of O.D. on M2 (SEQ ID NO:1),[8],< 10%
same,% of O.D. on M2 (SEQ ID NO:1),[9],< 10%
same,% of O.D. on M2 (SEQ ID NO:1),[10],< 10%
same,EC50,[11],< 1 nM
same,EC50,[12],1 to 10 nM
same,EC50,[13],< 1 nM
same,EC50,[14],1 to 10 nM
same,EC50,[15],< 1 nM
same,EC50,[16],< 1 nM
same,EC50,[17],< 1 nM
same,EC50,[18],< 1 nM
same,EC50,[19],< 1 nM
same,EC50,[20],< 1 nM
same,EC50,[21],> 10 nM
same,EC50,[22],> 10 nM
same,EC50,[23],> 10 nM
same,EC50,[24],> 10 nM
same,EC50,[25],> 10 nM
same,EC50,[26],> 10 nM
same,EC50,[27],> 10 nM
same,EC50,[28],> 10 nM
same,EC50,[29],> 10 nM
same,EC50,[30],> 10 nM
same,EC50,[31],> 10 nM
same,EC50,[32],> 10 nM
same,EC50,[33],> 10 nM
same,EC50,[34],> 10 nM
same,EC50,[35],> 10 nM
same,EC50,[36],> 10 nM
same,EC50,[37],> 10 nM
same,EC50,[38],> 10 nM
same,ELISA(OD450),[39],1.97 OD450
